Patent US20180110875A1 (SUZHOU SUNCADIA BIOPHARMACEUTICALS, published 2018)
Residue numbers refer to the chain shown, from its start.

Key:
[1] = target: T1, Human c-Met extracellular region (ECD) and murine Fc region fusion protein (Human c-Met ECD-mFc) (human, UniProt P08581 25-932); assay: blocking ELISA of HGF/c-Met binding: c-Met ECD-mFc coated, antibody titrated, human HGF 20 ng/ml
T1 construct: extracellular domain; Expressed in 293F cells; not shown: murine Fc region
Procedure: c-Met ECD-mFc (Example 1) was diluted in PBS (Hyclone, Cat #SH30256.01B) with a final concentration of 2 μg/ml, and then a 96-well ELISA plate (Costar, cat#2592) was coated with c-Met ECD-mFc at room temperature overnight. The plate was washed with PBST (PBS+0.05% tween 20, Simga, Cat#P1379) 3 times on a plate washer (Suppler: BioTex; Model: ELX405; S/N: 251504). 300 μl blocking solution PBS+1% BSA (Roche, Cat #738328) was added to the 96-well plate, and the plate was incubated for 60 minutes at 37° C. After the plate was washed with PBST 3 times, 50 μl of antibody diluted by blocking solution was added to the 96-well plate, and the plate was incubated for 90 minutes at 37° C. […] After the plate was washed with PBST 3 times, 100 μl of horseradish peroxidase (ebioscience, #18-4100-51) diluted with blocking solution was added to the 96-well plate and incubated for 30 minutes. After the plate was washed with PBST 3 times, 100 μl substrate (ebioscience, cat#00-4201-56) was added to the plate and incubated for 10 minutes at room temperature. 100 μl stop solution (2N H₂SO₄) was added, and data was read by a […] microplate reader (Supplier: Moleculer Devices; Model: MNR0643; Equip ID: TMRP001). Data analysis was performed by SoftMax Pro v5.

[2] = target: T2, Human c-Met extracellular Sema region and Flag-His tag (Human c-Met Sema-Flis) (human, UniProt P08581 25-515, limits assumed); assay: SPR (Biacore), antibody captured by anti-human IgG, Sema-His 200-0.78 nM as analyte, 1:1 Langmuir
T2 construct: domain: extracellular Sema region; Expressed in 293F cells; also called Sema-His; c-Met antigen Sema-His; not shown: C-terminal Flag-His tag
T2 sequence (P08581 25-515 limits assumed): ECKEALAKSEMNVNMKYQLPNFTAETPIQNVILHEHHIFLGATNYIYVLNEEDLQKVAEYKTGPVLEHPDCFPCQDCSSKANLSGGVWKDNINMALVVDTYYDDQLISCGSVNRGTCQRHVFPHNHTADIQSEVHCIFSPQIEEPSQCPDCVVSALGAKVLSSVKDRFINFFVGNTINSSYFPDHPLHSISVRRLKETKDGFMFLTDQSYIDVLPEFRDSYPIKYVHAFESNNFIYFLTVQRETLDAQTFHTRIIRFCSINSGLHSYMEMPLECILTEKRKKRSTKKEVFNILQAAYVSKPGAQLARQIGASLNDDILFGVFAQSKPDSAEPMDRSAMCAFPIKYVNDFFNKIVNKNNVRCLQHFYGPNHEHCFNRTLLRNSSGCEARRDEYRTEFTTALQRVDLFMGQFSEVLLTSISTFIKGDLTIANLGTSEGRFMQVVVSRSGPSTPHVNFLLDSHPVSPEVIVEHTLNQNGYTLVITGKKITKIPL
Procedure: Anti-mouse IgG (GE Life Sciences catalog # BR-1008-38) or anti-human IgG (GE Life Sciences catalog # BR-1008-39) antibodies were respectively diluted to 30 μg/ml and 50 μg/ml by sodium acetate solution, pH 5.0 (GE Healthcare, Cat#BR-1003-51). An amino coupling kit (GE Life Sciences, Cat#BR100050) was immobilized onto the test channels and control channels on a CMS chip (GE Life Sciences catalog # BR-1000-12), and the coupling level was set at 15000RU. Running buffer PBS (Hyclone, Cat#SH30256.01B)+0.05% P20 (GE Life Sciences, Cat#BR-1000-54) was used to dilute the c-Met antibody to 1.5 μg/ml. Antigen Sema-His was diluted to 200 nM with running buffer, and then diluted at a 1:2 dilution with the same buffer until it reached 0.78 nM. The diluted antibody passed through the test channel for 1 minute at a speed of 30 μl/min, and the antigen passed through the test channels and control channels for 3 minutes at the same speed. After 10 minutes of dissociation, the flow speed was adjusted to 10 μl/min, and regeneration buffer was passed through test channels and control channels for 3 minutes. Data was fitted by BiaEvaluation 4.1 after double deduction, and the fitting model was a 1:1 Langmuir model.

[3] = target: T3, Human c-Met ECD His Tag (Human c-Met ECD-his) recombinant protein (human, UniProt P08581 25-932); assay: ELISA, human c-Met-His coated at 2 ug/ml
T3 construct: extracellular domain; Expressed in 293F cells; also called human c-Met-His; not shown: C-terminal His tag
T3 sequence (P08581 25-932): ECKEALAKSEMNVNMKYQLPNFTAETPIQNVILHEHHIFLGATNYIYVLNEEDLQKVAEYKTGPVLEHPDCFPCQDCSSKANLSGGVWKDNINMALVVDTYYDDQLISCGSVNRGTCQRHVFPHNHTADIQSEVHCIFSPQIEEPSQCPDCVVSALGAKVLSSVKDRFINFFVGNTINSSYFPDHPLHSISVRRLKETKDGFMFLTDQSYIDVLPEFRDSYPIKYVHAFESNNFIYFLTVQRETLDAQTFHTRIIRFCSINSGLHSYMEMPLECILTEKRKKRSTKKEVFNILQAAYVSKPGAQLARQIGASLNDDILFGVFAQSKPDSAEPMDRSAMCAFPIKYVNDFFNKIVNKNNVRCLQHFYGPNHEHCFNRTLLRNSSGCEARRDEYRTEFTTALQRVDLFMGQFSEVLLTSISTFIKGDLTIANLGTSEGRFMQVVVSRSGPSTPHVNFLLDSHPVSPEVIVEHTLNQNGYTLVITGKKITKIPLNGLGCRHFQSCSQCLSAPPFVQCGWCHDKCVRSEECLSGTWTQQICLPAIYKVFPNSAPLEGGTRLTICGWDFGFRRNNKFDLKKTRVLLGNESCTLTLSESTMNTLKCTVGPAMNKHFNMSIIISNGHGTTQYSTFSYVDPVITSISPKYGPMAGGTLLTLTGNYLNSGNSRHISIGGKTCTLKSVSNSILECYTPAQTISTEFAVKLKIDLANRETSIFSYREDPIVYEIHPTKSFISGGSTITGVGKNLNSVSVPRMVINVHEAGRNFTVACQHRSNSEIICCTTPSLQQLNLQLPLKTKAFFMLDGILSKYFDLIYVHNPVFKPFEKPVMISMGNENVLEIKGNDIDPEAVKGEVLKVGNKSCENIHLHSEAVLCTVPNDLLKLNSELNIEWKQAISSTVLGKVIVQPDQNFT

[4] = target: T4, human c-Met expressed on cells (human, UniProt P08581 25-1390); assay: cell-based or functional assay
T4 sequence (P08581 25-1390): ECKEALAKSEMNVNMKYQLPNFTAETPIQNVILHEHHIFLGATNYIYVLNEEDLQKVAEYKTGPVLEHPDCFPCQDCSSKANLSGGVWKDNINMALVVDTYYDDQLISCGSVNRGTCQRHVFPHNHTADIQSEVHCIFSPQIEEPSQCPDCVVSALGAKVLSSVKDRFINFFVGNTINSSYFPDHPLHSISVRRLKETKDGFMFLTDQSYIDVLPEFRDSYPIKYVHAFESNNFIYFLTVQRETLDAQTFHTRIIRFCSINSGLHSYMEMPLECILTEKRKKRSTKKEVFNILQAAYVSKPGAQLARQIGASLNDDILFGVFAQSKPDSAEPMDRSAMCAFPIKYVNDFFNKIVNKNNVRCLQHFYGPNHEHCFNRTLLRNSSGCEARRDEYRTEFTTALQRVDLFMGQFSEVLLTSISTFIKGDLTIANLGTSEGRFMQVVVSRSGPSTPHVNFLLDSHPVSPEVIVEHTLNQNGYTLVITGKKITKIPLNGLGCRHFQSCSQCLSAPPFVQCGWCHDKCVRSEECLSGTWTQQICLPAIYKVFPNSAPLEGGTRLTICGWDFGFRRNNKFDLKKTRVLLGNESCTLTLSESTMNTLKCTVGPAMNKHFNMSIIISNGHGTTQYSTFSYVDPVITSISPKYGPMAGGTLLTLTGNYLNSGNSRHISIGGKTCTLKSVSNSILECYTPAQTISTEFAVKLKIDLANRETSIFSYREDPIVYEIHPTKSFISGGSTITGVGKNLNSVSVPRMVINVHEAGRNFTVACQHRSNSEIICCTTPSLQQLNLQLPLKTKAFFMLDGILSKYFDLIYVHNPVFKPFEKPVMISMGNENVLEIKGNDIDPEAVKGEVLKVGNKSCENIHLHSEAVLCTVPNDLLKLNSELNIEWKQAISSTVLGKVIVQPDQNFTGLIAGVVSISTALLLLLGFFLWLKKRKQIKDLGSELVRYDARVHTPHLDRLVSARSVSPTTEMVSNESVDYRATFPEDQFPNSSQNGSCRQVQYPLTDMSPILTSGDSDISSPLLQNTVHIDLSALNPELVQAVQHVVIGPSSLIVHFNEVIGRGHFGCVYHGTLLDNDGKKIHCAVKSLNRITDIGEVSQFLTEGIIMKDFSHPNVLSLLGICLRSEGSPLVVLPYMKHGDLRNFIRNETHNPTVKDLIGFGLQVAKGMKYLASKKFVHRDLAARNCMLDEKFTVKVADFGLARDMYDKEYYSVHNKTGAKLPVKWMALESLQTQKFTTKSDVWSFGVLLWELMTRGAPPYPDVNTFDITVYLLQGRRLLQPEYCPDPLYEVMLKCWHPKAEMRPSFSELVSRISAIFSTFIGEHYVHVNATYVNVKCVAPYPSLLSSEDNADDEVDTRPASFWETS

[5] = target: T4, human c-Met expressed on cells; assay: cell-based or functional assay; remark: listed apart in the source
[6] = target: T4, human c-Met expressed on cells; assay: cell-based or functional assay; remark: listed apart in the source

T1 sequence (P08581 25-932): as the sequence (P08581 25-932) above

B1: Ab-10 humanized antibody (antibody, human IgG2, kappa)
heavy: QVQLVESGGGVVQPGRSLRLSCAASGFSLSNYGVHWVRQAPGKGLEWLAVIWSGGSTNYAAAFVSRLTISKDNSKNTVYLQMNSLRAEDTAVYYCARNHDNPYNYAMDYWGQGTTVTVSSASTKGPSVFPLAPCSRSTSESTAALGCLVKDYFPEPVTVSWNSGALTSGVHTFPAVLQSSGLYSLSSVVTVPSSNFGTQTYTCNVDHKPSNTKVDKTVERKCCVECPPCPAPPVAGPSVFLFPPKPKDTLMISRTPEVTCVVVDVSHEDPEVQFNWYVDGVEVHNAKTKPREEQFNSTFRVVSVLTVVHQDWLNGKEYKCKVSNKGLPAPIEKTISKTKGQPREPQVYTLPPSREEMTKNQVSLTCLVKGFYPSDIAVEWESNGQPENNYKTTPPMLDSDGSFFLYSKLTVDKSRWQQGNVFSCSVMHEALHNHYTQKSLSLSPGK
light: DIVLTQSPDSLAVSLGERATINCRADKSVSTSTYNYLHWYQQKPGQPPKLLIYLASNLASGVPDRFSGSGSGTDFTLTISSLQAEDVAVYYCQHSRDLPPTFGQGTKLEIKRTVAAPSVFIFPPSDEQLKSGTASVVCLLNNFYPREAKVQWKVDNALQSGNSQESVTEQDSKDSTYSLSSTLTLSKADYEKHKVYACEVTHQGLSSPVTKSFNRGEC
notes: human constant regions, kappa light chain
Binder B1 has an IC50 [1] of 1.5 nM, a Kd [2] of 8 nM and an EC50 [3] of 0.39 nM. The “Activity of inhibition of MKN45 cell proliferation, IC50” value [4] was 0.55 nM, the “Inhibition of proliferation of BxPC3 cells (CCK), IC50” value [5] was greater than 1000 nM and the “Inhibition of proliferation of Caki-1 cells (CCK), IC50” value [5] was greater than 1000 nM. The “Inhibition of proliferation of MKN45 cells (CCK), IC50” value [5] was 0.15 nM, the “Inhibition of proliferation of NCI-H596 cells (CCK), IC50” value [5] was 13.7 nM and the “Inhibition of proliferation of PC9 cells (CCK), IC50” value [5] was greater than 1000 nM. For the same binder, the “Inhibition of proliferation of SNU5 cells (CCK), IC50” value [5] was 0.1 nM.

B2: Ab-11 humanized antibody (antibody, human IgG2, kappa, V domains shown)
VH: QVQLVESGGGVVQPGRSLRLSCAASGFTLPNYGVHWVRQAPGKGLEWLAVIWSGGSTNYAAAFVSRLTISKDNSKNTVYLQMNSLRAEDTAVYYCARNHDNPYNYAMDYWGQGTTVTVSS
VL: DIVLTQSPDSLAVSLGERATINCRANKSVSTSTYNYLHWYQQKPGQPPKLLIYLASNLASGVPDRFSGSGSGTDFTLTISSLQAEDVAVYYCQHSRDLPPTFGQGTKLEIKR
notes: as for B1
B2 showed an EC50 [3] of 0.2 nM.

B3: Anti-c-Met antibody Ab-10-toxin MC-MMAF conjugate (antibody, human IgG2, kappa, V domains shown)
VH: B2 VH with T28S, P30S
VL: B2 VL with N26D
modifications: MC-MMAF coupled through a propyl mercaptan linker put on the antibody; average y=1.7 per antibody; chain and residues not stated
With B3 the “IC50 (nM) in MKN45 cell (cytotoxicity, ATP assay)” value [6] was 0.51 nM, the “Inhibition of proliferation of BxPC3 cells (CCK), IC50” value [5] was 6.9 nM and the “Inhibition of proliferation of Caki-1 cells (CCK), IC50” value [5] was 6.5 nM. The “Inhibition of proliferation of MKN45 cells (CCK), IC50” value [5] was 0.17 nM, the “Inhibition of proliferation of NCI-H596 cells (CCK), IC50” value [5] was 104 nM and the “Inhibition of proliferation of NCI-H1993 cells (CCK), IC50” value [5] was 2.8 nM. For the same binder, the “Inhibition of proliferation of PC9 cells (CCK), IC50” value [5] was 5.6 nM and the “Inhibition of proliferation of SNU5 cells (CCK), IC50” value [5] was 0.24 nM.

B4: Anti-c-Met antibody Ab-10-toxin conjugate (Example 24) (antibody, V domains shown)
VH: B2 VH with T28S, P30S
VL: B2 VL with N26D
modifications: toxin intermediate 12h (maleimidocaproyl derivative of toxin 12g) coupled through a propyl mercaptan linker put on the antibody; average y=1.6 per antibody; chain and residues not stated
With B4 the “IC50 (nM) in MKN45 cell (cytotoxicity, ATP assay)” value [6] was 0.59 nM.

B5: Ab-9 humanized antibody (antibody, human IgG2, kappa)
heavy: QVTLKESGPVLVKPTETLTLTCTVSGFSLPNYGVHWVRQPPGKALEWLAVIWSGGSTNYAAAFVSRLRISKDTSKSQVVFTMNNMDPVDTATYYCARNHDNPYNYAMDYWGQGTTVTVSSASTKGPSVFPLAPCSRSTSESTAALGCLVKDYFPEPVTVSWNSGALTSGVHTFPAVLQSSGLYSLSSVVTVPSSNFGTQTYTCNVDHKPSNTKVDKTVERKCCVECPPCPAPPVAGPSVFLFPPKPKDTLMISRTPEVTCVVVDVSHEDPEVQFNWYVDGVEVHNAKTKPREEQFNSTFRVVSVLTVVHQDWLNGKEYKCKVSNKGLPAPIEKTISKTKGQPREPQVYTLPPSREEMTKNQVSLTCLVKGFYPSDIAVEWESNGQPENNYKTTPPMLDSDGSFFLYSKLTVDKSRWQQGNVFSCSVMHEALHNHYTQKSLSLSPGK
light: DIVLTQSPASLAVSPGQRATITCRANKSVSTSTYNYLHWYQQKPGQPPKLLIYLASNLASGVPARFSGSGSGTDFTLTINPVEANDTANYYCQHSRDLPPTFGQGTKLEIKRTVAAPSVFIFPPSDEQLKSGTASVVCLLNNFYPREAKVQWKVDNALQSGNSQESVTEQDSKDSTYSLSSTLTLSKADYEKHKVYACEVTHQGLSSPVTKSFNRGEC
notes: as for B1
In the case of B5, the IC50 [1] is reported as 1.42 nM, the Kd [2] is reported as 4 nM and the EC50 [3] is reported as 0.13 nM. For the same binder, the “Activity of inhibition of MKN45 cell proliferation, IC50” value [4] was 0.52 nM.
